± gives the uncertainty stated by the source.
B1: Proto-oncogene vav, residues 782 to 842; numbered along this chain, P15498 (parent)
chain: KYFGTAKARYDFCARDRSELSLKEGDIIKILNKKGQQGWWRGEIYGRVGWFPANYVEEDYS

Variants of: B1
Assay: abundance fitness (aPCA) (normalised: wild type 0, dead -1); higher = more abundant; growth selection in yeast, the domain comes from the species named
Settings: Homo sapiens

With KYFGTAKARYDFCARDRSELSLKEGDIIKILNKKGQQGWWRGEIYGRVGQFPANYVEEDYS [W50Q] as the variant, how does the abundance fitness read?
The abundance fitness was -0.516 ± 0.15.

With KYFGTAKARYDFCARDRSELSLKEGDIIKILNKKGQQGWWRGEIYGRVGRFPANYVEEDYS [W50R] as the variant, how does the abundance fitness read?
Its abundance fitness is -0.596 ± 0.092.

Which abundance fitness does the source give for KYFGTAKARYDFCARDRSELSLKEGDIIKILNKKGQQGWWRGEIYGRVGYFPANYVEEDYS [W50Y] here?
The abundance fitness was -0.17 ± 0.11.

For KYFGTAKARYDFCARDRSELSLKEGDIIKILNKKGQQGWWRGEIYGRVGSFPANYVEEDYS [W50S], which abundance fitness is on record?
The abundance fitness was -0.584 ± 0.11.

For KYFGTAKARYDFCARDRSELSLKEGDIIKILNKKGQQGWWRGEIYGRVGTFPANYVEEDYS [W50T], which abundance fitness is on record?
Its abundance fitness is -0.645 ± 0.17.

Which abundance fitness does the source give for KYFGTAKARYDFCARDRSELSLKEGDIIKILNKKGQQGWWRGEIYGRVGVFPANYVEEDYS [W50V] here?
The abundance fitness was -0.452 ± 0.098.

With KYFGTAKARYDFCARDRSELSLKEGDIIKILNKKGQQGWWRGEIYGRVGWAPANYVEEDYS [F51A] as the variant, how does the abundance fitness read?
The abundance fitness was -0.984 ± 0.27.

Which abundance fitness does the source give for KYFGTAKARYDFCARDRSELSLKEGDIIKILNKKGQQGWWRGEIYGRVGWSPANYVEEDYS [F51S] here?
Its abundance fitness is -0.857 ± 0.15.

With KYFGTAKARYDFCARDRSELSLKEGDIIKILNKKGQQGWWRGEIYGRVGWCPANYVEEDYS [F51C] as the variant, how does the abundance fitness read?
The abundance fitness was -0.859 ± 0.18.

Which abundance fitness does the source give for KYFGTAKARYDFCARDRSELSLKEGDIIKILNKKGQQGWWRGEIYGRVGWIPANYVEEDYS [F51I] here?
Its abundance fitness is -0.691 ± 0.25.

With KYFGTAKARYDFCARDRSELSLKEGDIIKILNKKGQQGWWRGEIYGRVGWPPANYVEEDYS [F51P] as the variant, how does the abundance fitness read?
Its abundance fitness is -0.733 ± 0.19.

For KYFGTAKARYDFCARDRSELSLKEGDIIKILNKKGQQGWWRGEIYGRVGWDPANYVEEDYS [F51D], which abundance fitness is on record?
Its abundance fitness is -0.951 ± 0.3.

With KYFGTAKARYDFCARDRSELSLKEGDIIKILNKKGQQGWWRGEIYGRVGWNPANYVEEDYS [F51N] as the variant, how does the abundance fitness read?
Its abundance fitness is -0.489 ± 0.33.

For KYFGTAKARYDFCARDRSELSLKEGDIIKILNKKGQQGWWRGEIYGRVGWTPANYVEEDYS [F51T], which abundance fitness is on record?
The abundance fitness was -0.799 ± 0.15.

For KYFGTAKARYDFCARDRSELSLKEGDIIKILNKKGQQGWWRGEIYGRVGWWPANYVEEDYS [F51W], which abundance fitness is on record?
Its abundance fitness is -0.988 ± 0.2.

With KYFGTAKARYDFCARDRSELSLKEGDIIKILNKKGQQGWWRGEIYGRVGWEPANYVEEDYS [F51E] as the variant, how does the abundance fitness read?
Its abundance fitness is -0.913 ± 0.25.

Which abundance fitness does the source give for KYFGTAKARYDFCARDRSELSLKEGDIIKILNKKGQQGWWRGEIYGRVGWQPANYVEEDYS [F51Q] here?
Its abundance fitness is -0.759 ± 0.19.

For KYFGTAKARYDFCARDRSELSLKEGDIIKILNKKGQQGWWRGEIYGRVGWRPANYVEEDYS [F51R], which abundance fitness is on record?
Its abundance fitness is -0.78 ± 0.12.

For KYFGTAKARYDFCARDRSELSLKEGDIIKILNKKGQQGWWRGEIYGRVGWMPANYVEEDYS [F51M], which abundance fitness is on record?
The abundance fitness was -0.905 ± 0.15.

With KYFGTAKARYDFCARDRSELSLKEGDIIKILNKKGQQGWWRGEIYGRVGWLPANYVEEDYS [F51L] as the variant, how does the abundance fitness read?
The abundance fitness was -0.813 ± 0.088.

Which abundance fitness does the source give for KYFGTAKARYDFCARDRSELSLKEGDIIKILNKKGQQGWWRGEIYGRVGWVPANYVEEDYS [F51V] here?
Its abundance fitness is -0.684 ± 0.1.

With KYFGTAKARYDFCARDRSELSLKEGDIIKILNKKGQQGWWRGEIYGRVGWGPANYVEEDYS [F51G] as the variant, how does the abundance fitness read?
Its abundance fitness is -0.838 ± 0.1.

For KYFGTAKARYDFCARDRSELSLKEGDIIKILNKKGQQGWWRGEIYGRVGWFPANAVEEDYS [Y55A], which abundance fitness is on record?
The abundance fitness was 0.053 ± 0.073.

For KYFGTAKARYDFCARDRSELSLKEGDIIKILNKKGQQGWWRGEIYGRVGWFPANQVEEDYS [Y55Q], which abundance fitness is on record?
Its abundance fitness is -0.457 ± 0.14.

Which abundance fitness does the source give for KYFGTAKARYDFCARDRSELSLKEGDIIKILNKKGQQGWWRGEIYGRVGWFPANEVEEDYS [Y55E] here?
The abundance fitness was -0.763 ± 0.23.

For KYFGTAKARYDFCARDRSELSLKEGDIIKILNKKGQQGWWRGEIYGRVGWFPANDVEEDYS [Y55D], which abundance fitness is on record?
The abundance fitness was -0.736 ± 0.19.

Which abundance fitness does the source give for KYFGTAKARYDFCARDRSELSLKEGDIIKILNKKGQQGWWRGEIYGRVGWFPANFVEEDYS [Y55F] here?
The abundance fitness was -0.258 ± 0.16.

Which abundance fitness does the source give for KYFGTAKARYDFCARDRSELSLKEGDIIKILNKKGQQGWWRGEIYGRVGWFPANPVEEDYS [Y55P] here?
The abundance fitness was -0.925 ± 0.37.

Which abundance fitness does the source give for KYFGTAKARYDFCARDRSELSLKEGDIIKILNKKGQQGWWRGEIYGRVGWFPANRVEEDYS [Y55R] here?
The abundance fitness was -0.135 ± 0.057.

Which abundance fitness does the source give for KYFGTAKARYDFCARDRSELSLKEGDIIKILNKKGQQGWWRGEIYGRVGWFPANMVEEDYS [Y55M] here?
Its abundance fitness is -0.012 ± 0.078.

With KYFGTAKARYDFCARDRSELSLKEGDIIKILNKKGQQGWWRGEIYGRVGWFPANCVEEDYS [Y55C] as the variant, how does the abundance fitness read?
Its abundance fitness is 0.093 ± 0.11.

Which abundance fitness does the source give for KYFGTAKARYDFCARDRSELSLKEGDIIKILNKKGQQGWWRGEIYGRVGWFPANLVEEDYS [Y55L] here?
The abundance fitness was 0.058 ± 0.05.

For KYFGTAKARYDFCARDRSELSLKEGDIIKILNKKGQQGWWRGEIYGRVGWFPANGVEEDYS [Y55G], which abundance fitness is on record?
The abundance fitness was -0.396 ± 0.11.

For KYFGTAKARYDFCARDRSELSLKEGDIIKILNKKGQQGWWRGEIYGRVGWFPANHVEEDYS [Y55H], which abundance fitness is on record?
Its abundance fitness is -0.226 ± 0.14.

Which abundance fitness does the source give for KYFGTAKARYDFCARDRSELSLKEGDIIKILNKKGQQGWWRGEIYGRVGWFPANKVEEDYS [Y55K] here?
Its abundance fitness is -0.388 ± 0.11.

With KYFGTAKARYDFCARDRSELSLKEGDIIKILNKKGQQGWWRGEIYGRVGWFPAGYVEEDYS [N54G] as the variant, how does the abundance fitness read?
The abundance fitness was -0.065 ± 0.062.

With KYFGTAKARYDFCARDRSELSLKEGDIIKILNKKGQQGWWRGEIYGRVGWFPAWYVEEDYS [N54W] as the variant, how does the abundance fitness read?
Its abundance fitness is -0.091 ± 0.096.

For KYFGTAKARYDFCARDRSELSLKEGDIIKILNKKGQQGWWRGEIYGRVGWFPAVYVEEDYS [N54V], which abundance fitness is on record?
The abundance fitness was -0.098 ± 0.054.

With KYFGTAKARYDFCARDRSELSLKEGDIIKILNKKGQQGWWRGEIYGRVGWFPATYVEEDYS [N54T] as the variant, how does the abundance fitness read?
The abundance fitness was -0.112 ± 0.094.

Which abundance fitness does the source give for KYFGTAKARYDFCARDRSELSLKEGDIIKILNKKGQQGWWRGEIYGRVGWFPAKYVEEDYS [N54K] here?
The abundance fitness was -0.092 ± 0.11.

With KYFGTAKARYDFCARDRSELSLKEGDIIKILNKKGQQGWWRGEIYGRVGWFPAQYVEEDYS [N54Q] as the variant, how does the abundance fitness read?
The abundance fitness was -0.201 ± 0.12.

For KYFGTAKARYDFCARDRSELSLKEGDIIKILNKKGQQGWWRGEIYGRVGWFPAMYVEEDYS [N54M], which abundance fitness is on record?
Its abundance fitness is -0.214 ± 0.097.

For KYFGTAKARYDFCARDRSELSLKEGDIIKILNKKGQQGWWRGEIYGRVGWFPAIYVEEDYS [N54I], which abundance fitness is on record?
The abundance fitness was -0.376 ± 0.13.
